The results in this text go back to IntAct's records for PubMed 25910212.

B1: Basal cell adhesion molecule (Homo sapiens), P50895 (parent)
chain: MEPPDAPAQARGAPRLLLLAVLLAAHPDAQAEVRLSVPPLVEVMRGKSVILDCTPTGTHDHYMLEWFLTDRSGARPRLASAEMQGSELQVTMHDTRGRSPPYQLDSQGRLVLAEAQVGDERDYVCVVRAGAAGTAEATARLNVFAKPEATEVSPNKGTLSVMEDSAQEIATCNSRNGNPAPKITWYRNGQRLEVPVEMNPEGYMTSRTVREASGLLSLTSTLYLRLRKDDRDASFHCAAHYSLPEGRHGRLDSPTFHLTLHYPTEHVQFWVGSPSTPAGWVREGDTVQLLCRGDGSPSPEYTLFRLQDEQEEVLNVNLEGNLTLEGVTRGQSGTYGCRVEDYDAADDVQLSKTLELRVAYLDPLELSEGKVLSLPLNSSAVVNCSVHGLPTPALRWTKDSTPLGDGPMLSLSSITFDSNGTYVCEASLPTVPVLSRTQNFTLLVQGSPELKTAEIEPKADGSWREGDEVTLICSARGHPDPKLSWSQLGGSPAEPIPGRQGWVSSSLTLKVTSALSRDGISCEASNPHGNKRHVFHFGTVSPQTSQAGVAVMAVAVSVGLLLLVVAVFYCVRRKGGPCCRQRREKGAPPPGEPGLSHSGSEQPEQTGLLMGGASGGARGGSGGFGDEC
partner: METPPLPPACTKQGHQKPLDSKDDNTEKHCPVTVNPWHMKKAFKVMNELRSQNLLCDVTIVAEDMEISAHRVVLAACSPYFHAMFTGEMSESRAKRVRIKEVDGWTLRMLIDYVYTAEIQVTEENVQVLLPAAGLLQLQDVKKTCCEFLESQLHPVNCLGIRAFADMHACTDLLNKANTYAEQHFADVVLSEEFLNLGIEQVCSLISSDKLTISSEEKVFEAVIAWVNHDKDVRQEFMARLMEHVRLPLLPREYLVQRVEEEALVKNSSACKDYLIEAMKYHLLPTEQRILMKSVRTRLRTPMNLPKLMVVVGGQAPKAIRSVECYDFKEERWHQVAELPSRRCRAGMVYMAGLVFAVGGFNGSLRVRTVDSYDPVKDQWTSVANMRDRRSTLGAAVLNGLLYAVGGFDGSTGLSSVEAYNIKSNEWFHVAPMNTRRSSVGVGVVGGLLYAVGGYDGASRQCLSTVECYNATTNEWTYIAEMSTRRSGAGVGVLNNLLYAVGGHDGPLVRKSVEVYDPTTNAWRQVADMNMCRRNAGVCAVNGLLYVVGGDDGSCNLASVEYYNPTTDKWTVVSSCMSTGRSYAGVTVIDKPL
B2: Neuromedin-B (Homo sapiens), P08949-2 (parent)
chain: MARRAGGARMFGSLLLFALLAAGVAPLSWDLPEPRSRASKIRVHSRGNLWATGHFMGKKSLEPSSPSPLGTAPHTSLRDQRLQLSHDLLGILLLKKALGVSLSRPAPQIQEAAGTNTAEMTPIMGQTQQRGLDCAHPGKVLNGTLLMAPSGCKS
B3: Glycogen phosphorylase, liver form (Homo sapiens), P06737 (parent)
chain: MAKPLTDQEKRRQISIRGIVGVENVAELKKSFNRHLHFTLVKDRNVATTRDYYFALAHTVRDHLVGRWIRTQQHYYDKCPKRVYYLSLEFYMGRTLQNTMINLGLQNACDEAIYQLGLDIEELEEIEEDAGLGNGGLGRLAACFLDSMATLGLAAYGYGIRYEYGIFNQKIRDGWQVEEADDWLRYGNPWEKSRPEFMLPVHFYGKVEHTNTGTKWIDTQVVLALPYDTPVPGYMNNTVNTMRLWSARAPNDFNLRDFNVGDYIQAVLDRNLAENISRVLYPNDNFFEGKELRLKQEYFVVAATLQDIIRRFKASKFGSTRGAGTVFDAFPDQVAIQLNDTHPALAIPELMRIFVDIEKLPWSKAWELTQKTFAYTNHTVLPEALERWPVDLVEKLLPRHLEIIYEINQKHLDRIVALFPKDVDRLRRMSLIEEEGSKRINMAHLCIVGSHAVNGVAKIHSDIVKTKVFKDFSELEPDKFQNKTNGITPRRWLLLCNPGLAELIAEKIGEDYVKDLSQLTKLHSFLGDDVFLRELAKVKQENKLKFSQFLETEYKVKINPSSMFDVQVKRIHEYKRQLLNCLHVITMYNRIKKDPKKLFVPRTVIIGGKAAPGYHMAKMIIKLITSVADVVNNDPMVGSKLKVIFLENYRVSLAEKVIPATDLSEQISTAGTEASGTGNMKFMLNGALTIGTMDGANVEMAEEAGEENLFIFGMRIDDVAALDKKGYEAKEYYEALPELKLVIDQIDNGFFSPKQPDLFKDIINMLFYHDRFKVFADYEAYVKCQDKVSQLYMNPKAWNTMVLKNIAASGKFSSDRTIKEYAQNIWNVEPSDLKISLSNESNKVNGN
partner: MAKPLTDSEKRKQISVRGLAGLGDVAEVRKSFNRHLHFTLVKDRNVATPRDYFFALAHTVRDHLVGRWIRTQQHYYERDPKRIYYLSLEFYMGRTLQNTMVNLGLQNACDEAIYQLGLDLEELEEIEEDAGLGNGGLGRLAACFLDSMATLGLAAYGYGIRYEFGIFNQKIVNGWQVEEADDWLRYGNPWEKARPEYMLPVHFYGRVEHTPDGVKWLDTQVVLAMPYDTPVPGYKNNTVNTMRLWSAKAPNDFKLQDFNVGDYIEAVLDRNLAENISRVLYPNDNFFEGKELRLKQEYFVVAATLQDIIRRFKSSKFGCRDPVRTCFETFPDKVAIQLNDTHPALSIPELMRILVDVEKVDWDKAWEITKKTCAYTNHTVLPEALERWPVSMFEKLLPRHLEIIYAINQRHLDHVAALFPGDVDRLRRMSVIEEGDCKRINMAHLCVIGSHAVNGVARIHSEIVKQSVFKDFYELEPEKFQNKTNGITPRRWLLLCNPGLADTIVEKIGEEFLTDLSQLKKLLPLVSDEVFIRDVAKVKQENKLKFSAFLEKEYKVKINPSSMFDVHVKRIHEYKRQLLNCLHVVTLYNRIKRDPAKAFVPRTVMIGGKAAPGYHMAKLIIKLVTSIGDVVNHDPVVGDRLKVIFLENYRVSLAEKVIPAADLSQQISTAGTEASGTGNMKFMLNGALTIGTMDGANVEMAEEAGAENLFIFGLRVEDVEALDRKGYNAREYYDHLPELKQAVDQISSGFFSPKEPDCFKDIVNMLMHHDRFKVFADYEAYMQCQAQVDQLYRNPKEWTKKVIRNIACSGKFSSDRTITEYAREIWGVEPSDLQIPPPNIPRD
B4: Synaptogyrin-1 (Homo sapiens), O43759-2 (parent)
chain: MEGGAYGAGKAGGAFDPYTLVRQPHTILRVVSWLFSIVVFGSIVNEGYLNSASEGEEFCIYNRNPNACSYGVAVGVLAFLTCLLYLALDVYFPQISSVKDRKKAVLSDIGVSAFWAFLWFVGFCYLANQWQVSKPKDNPLNEGTDAARAAIAFSFFSIFTWSLTAALAVRRFKDLSFQEEYSTLFPASAQP
partner: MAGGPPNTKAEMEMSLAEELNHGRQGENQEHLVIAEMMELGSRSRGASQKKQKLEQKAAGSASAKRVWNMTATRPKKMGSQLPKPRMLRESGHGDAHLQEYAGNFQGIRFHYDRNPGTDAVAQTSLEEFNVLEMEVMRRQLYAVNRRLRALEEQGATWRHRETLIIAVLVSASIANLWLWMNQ
B5: Glycophorin-B (Homo sapiens), P06028 (parent)
chain: MYGKIIFVLLLSEIVSISALSTTEVAMHTSTSSSVTKSYISSQTNGETGQLVHRFTVPAPVVIILIILCVMAGIIGTILLISYSIRRLIKA
B6: 2'-5'-oligoadenylate synthase 1 (Homo sapiens), P00973-2 (parent)
chain: MMDLRNTPAKSLDKFIEDYLLPDTCFRMQINHAIDIICGFLKERCFRGSSYPVCVSKVVKGGSSGKGTTLRGRSDADLVVFLSPLTTFQDQLNRRGEFIQEIRRQLEACQRERAFSVKFEVQAPRWGNPRALSFVLSSLQLGEGVEFDVLPAFDALGQLTGGYKPNPQIYVKLIEECTDLQKEGEFSTCFTELQRDFLKQRPTKLKSLIRLVKHWYQNCKKKLGKLPPQYALELLTVYAWERGSMKTHFNTAQGFRTVLELVINYQQLCIYWTKYYDFKNPIIEKYLRRQLTKPRPVILDPADPTGNLGGGDPKGWRQLAQEAEAWLNYPCFKNWDGSPVSSWILLVRPPASSLPFIPAPLHEA
partner: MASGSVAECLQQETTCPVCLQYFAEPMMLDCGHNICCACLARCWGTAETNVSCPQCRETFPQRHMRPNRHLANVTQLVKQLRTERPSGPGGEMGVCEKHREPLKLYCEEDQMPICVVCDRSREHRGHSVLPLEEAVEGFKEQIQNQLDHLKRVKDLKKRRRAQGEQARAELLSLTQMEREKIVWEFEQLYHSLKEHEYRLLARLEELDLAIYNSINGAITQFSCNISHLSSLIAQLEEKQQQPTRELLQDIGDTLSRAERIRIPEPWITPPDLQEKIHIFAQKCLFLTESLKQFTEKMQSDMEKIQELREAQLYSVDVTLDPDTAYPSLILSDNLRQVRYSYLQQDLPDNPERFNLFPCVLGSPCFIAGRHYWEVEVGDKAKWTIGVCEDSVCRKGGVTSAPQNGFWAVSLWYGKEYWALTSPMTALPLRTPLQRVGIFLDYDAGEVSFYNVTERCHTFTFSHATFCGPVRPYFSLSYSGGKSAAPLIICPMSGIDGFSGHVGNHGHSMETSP

The variants in one experiment derive from B1. The following applies: with klhl2_human KLHL2, O95198.
Turning to S447L, the “effect of a mutation on the interaction” value is given as “with no effect”. Still for that read-out and setting: then R77H, with “with no effect”; and R175Q, with “with no effect”.

The variants in the next experiment derive from B2. The following applies: with birc2_human BIRC2, Q13490.
Consider M120I, for which the “effect of a mutation on the interaction” value is listed as “with no effect”.

The variants in the next experiment derive from B3. The following applies: with pygb_human PYGB.
As to N339S, the “effect of a mutation on the interaction” value is given as “with no effect”. Still for that read-out and setting: then N377K, with “with no effect”.

The next experiment covers variants of B4. To be noted: with fate1_human FATE1, Q969F0.
For K99E, the “effect of a mutation on the interaction” value is “disrupting interaction strength”.

A further experiment covers variants of B5. To be noted: with ubql1_human UBQLN1, Q9UMX0.
Regarding T48M, the “effect of a mutation on the interaction” value is given as “with no effect”.

The variants in a further experiment derive from B6. The following applies: with tri27_human TRIM27, P14373.
Take R242Q: the “effect of a mutation on the interaction” value was “with no effect”.
